# Laboratory results from article PMC8011160, “GroEL protein of the Leptospira spp. interacts with host proteins and induces cytokines secretion on macrophages” (BMC Microbiology, 2021).
# T1: elastin (purified from bovine neck ligament) (bovine, UniProt P04985 27-747)
# T1 construct: elastin, bovine, purified from neck ligament; an insoluble protein; Insoluble material of tissue; used coated on wells (ELISA) and as a solid in the co-sedimentation; also called insoluble elastin; source: bought: Sigma-Aldrich (purified from bovine neck ligament)
# T1 sequence (looked up): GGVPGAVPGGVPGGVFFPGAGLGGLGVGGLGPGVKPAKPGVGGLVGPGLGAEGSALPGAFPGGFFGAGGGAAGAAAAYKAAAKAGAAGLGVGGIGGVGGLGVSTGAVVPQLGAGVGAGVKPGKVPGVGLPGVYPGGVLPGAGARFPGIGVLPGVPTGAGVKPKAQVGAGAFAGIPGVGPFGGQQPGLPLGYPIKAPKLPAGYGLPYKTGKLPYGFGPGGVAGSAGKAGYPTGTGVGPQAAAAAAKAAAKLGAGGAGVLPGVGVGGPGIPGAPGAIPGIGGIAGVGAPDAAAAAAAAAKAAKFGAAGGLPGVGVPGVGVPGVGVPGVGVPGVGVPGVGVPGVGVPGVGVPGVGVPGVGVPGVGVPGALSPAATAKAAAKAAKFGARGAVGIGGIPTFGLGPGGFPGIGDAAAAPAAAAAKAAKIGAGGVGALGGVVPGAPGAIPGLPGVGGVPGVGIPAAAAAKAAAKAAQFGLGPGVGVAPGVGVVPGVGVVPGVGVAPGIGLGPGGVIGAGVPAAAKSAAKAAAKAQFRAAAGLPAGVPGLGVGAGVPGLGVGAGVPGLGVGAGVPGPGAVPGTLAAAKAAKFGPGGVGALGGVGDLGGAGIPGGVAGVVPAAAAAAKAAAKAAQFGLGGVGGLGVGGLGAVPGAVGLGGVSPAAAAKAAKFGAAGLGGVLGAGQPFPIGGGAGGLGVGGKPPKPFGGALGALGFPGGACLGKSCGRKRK
# T2: fibrinogen (purified from human plasma) (human, UniProt P02671-2 20-644; P02675 31-491; P02679-2 27-437)
# T2 construct: fibrinogen alpha chain, human; fibrinogen beta chain, human; fibrinogen gamma chain, human; source: bought: Sigma-Aldrich (purified from human plasma)
# T2 sequence (looked up) 1: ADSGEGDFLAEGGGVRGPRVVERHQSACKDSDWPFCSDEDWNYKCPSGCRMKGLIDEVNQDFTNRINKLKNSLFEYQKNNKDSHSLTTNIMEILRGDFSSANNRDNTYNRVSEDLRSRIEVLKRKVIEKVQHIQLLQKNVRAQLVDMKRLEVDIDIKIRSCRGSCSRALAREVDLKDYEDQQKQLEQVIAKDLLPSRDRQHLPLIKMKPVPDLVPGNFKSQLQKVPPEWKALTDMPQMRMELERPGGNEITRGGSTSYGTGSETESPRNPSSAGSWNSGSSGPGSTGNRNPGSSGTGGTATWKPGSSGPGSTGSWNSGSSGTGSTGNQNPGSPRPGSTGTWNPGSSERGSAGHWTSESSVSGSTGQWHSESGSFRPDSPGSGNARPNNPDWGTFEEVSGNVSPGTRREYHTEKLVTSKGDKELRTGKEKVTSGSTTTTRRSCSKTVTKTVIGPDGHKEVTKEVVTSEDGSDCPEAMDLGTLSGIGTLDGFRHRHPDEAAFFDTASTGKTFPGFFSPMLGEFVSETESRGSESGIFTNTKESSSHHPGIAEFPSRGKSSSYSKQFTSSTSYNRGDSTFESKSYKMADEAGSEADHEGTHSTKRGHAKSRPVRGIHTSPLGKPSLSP
# T2 sequence (looked up) 2: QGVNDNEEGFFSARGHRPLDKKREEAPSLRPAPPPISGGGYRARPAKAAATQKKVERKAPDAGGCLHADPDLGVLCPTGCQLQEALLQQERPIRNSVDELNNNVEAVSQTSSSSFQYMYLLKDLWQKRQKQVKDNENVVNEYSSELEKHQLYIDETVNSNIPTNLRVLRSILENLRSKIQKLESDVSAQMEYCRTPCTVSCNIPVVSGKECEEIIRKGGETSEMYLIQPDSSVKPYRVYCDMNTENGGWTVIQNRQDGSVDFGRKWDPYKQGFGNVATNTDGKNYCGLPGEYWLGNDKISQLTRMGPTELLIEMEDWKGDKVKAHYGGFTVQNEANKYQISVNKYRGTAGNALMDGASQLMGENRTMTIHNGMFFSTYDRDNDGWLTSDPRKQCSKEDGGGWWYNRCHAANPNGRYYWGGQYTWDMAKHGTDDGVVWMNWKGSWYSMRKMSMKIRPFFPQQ
# T2 sequence (looked up) 3: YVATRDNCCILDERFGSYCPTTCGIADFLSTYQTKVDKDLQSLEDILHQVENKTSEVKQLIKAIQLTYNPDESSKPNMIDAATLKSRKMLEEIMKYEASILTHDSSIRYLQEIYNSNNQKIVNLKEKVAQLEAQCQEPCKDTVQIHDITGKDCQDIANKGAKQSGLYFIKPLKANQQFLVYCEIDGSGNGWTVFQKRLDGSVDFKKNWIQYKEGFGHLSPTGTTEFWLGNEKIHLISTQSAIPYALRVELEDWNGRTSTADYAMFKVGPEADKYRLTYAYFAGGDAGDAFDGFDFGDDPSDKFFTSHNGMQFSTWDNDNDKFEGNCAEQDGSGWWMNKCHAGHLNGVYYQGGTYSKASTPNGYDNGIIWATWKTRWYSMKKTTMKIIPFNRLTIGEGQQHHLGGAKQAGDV
# B1: GroEL protein of Leptospira interrogans (recombinant, His-tagged) (natural protein, UniProt P61438 1-546, looked up)
# chain: MAKDIEYNETARRKLLEGVNKLANAVKVTLGPKGRNVVIDKKFGAPTITKDGVTVAKEIELEDPLENMGAQMVKEVSTKTNDVAGDGTTTATILAQSIINEGLKNVTAGANPMSLKKGIDKAVTAAVESIQKRAVKIENKKDIANVASISANNDNTIGNLIADAMDKVGKDGVITVEEAKSIETTLDVVEGMQFDRGYISPYMVTDAESMVATLNDPFILIYDKKISSMKDLIHILEKVAQAGKPLVIISEEVEGEALATIVVNTLRKTISCVAVKAPGFGDRRKSMLEDIAILTGGQVISEDLGMKLENTTLQMLGRANKVTVDKENTTIIEGKGQTKEIQGRIGQIKKQIEDTTSEYDREKLQERLAKLAGGVAVIHVGAATEVEMKEKKARVEDALSATRAAVEEGIVPGGGLTLLKAQEAVGSLKLDGDEATGAKIIFRALEEPIRMITSNAGLEGSVIVEHAKAKKGNEGFNALTMVWEDMIQAGVVDPAKVVRSALQNAASIGSMILTTEVTITDKPDKDAPNPMAGMGGGGMGGMGGMM
# notes: GroEL (chaperonin 60, HSP60) of L. interrogans serovar Copenhageni strain Fiocruz L1-130, GenBank AAS69936.1, 60 kDa; Cloned BamHI/HindIII into the vector pAE; as far as I recall pAE adds an N-terminal His6 tag; also called chaperonin 60; Cpn60; source: LPS removed on Detoxi-Gel
# B2: truncated form of leptospiral immunoglobulin-like protein B (LigBC, amino acids 631-1156) (domain or fragment)
# chain: AEIKNTSGSKGITNTLTPGSSEISAALGSIKSSKVILKVTPAQLISIAVTPINPSVAKGLIRQFKATGTYTDHSVQDVTALATWSSSNPGKAMVNNVTGSVTTVATGNTNIKATIDSISGSSVLNVTPALLTSIEITPTINSITHGLTKQFKATGIFSDKSTQNLTQLVTWISSDPSKIEIENTSGKKGIATASKLGSSNIKAVYKFIQSSPIPITVTDLKLKSITISPSSSSIAKGLTQQFKAIGTFIDGSEQEITNLVTWYSSKSDVAPINNAANAKGLATALSIGSSNISAIYNSISSNKINFNVSAATLDSIKINPVNNNIAKGLTQQYTALGVYSDSTIQDISDSVTWSSSNSDSISISNSTETKGKATALQIGNSKITATYNSISENIDITVSAATLSSISISPINTNINATVSKQFFAVGTYSDGTKADLTSSVTWSSSNKSQAKVSNASKTKGLVTGIASGNSIITATYGSVSGNTILTVNKTDTIAPTVQSVVSLSPTTIQVVYSESINNKEALDLS
# notes: leptospiral immunoglobulin-like protein B (LigB), GenBank AAS69085, amino acids 631-1156, 56 kDa; half of immunoglobulin-like repeat 7 plus domains 8 to 12; source: LPS removed on Detoxi-Gel
# Columns and labels:
# Assay in all cases: ELISA; host protein coated on microtiter wells; recombinant protein varied from 0 to 2 μM; absorbance with BSA subtracted; apparent Kd from the half-maximal binding concentration (GraphPad Prism 6)
# Conditions in all cases: both partners purified
# [1] = molecular target: T3, laminin (purified from basement membrane of Engelbreth-Holm-Swarm mouse sarcoma) (mouse, UniProt P19137 25-3083; P02469 22-1786; P02468 34-1607)
# T3 construct: source: bought: Sigma-Aldrich (purified from basement membrane of Engelbreth-Holm-Swarm mouse sarcoma)
# [2] = molecular target: T1, elastin (purified from bovine neck …)
# [3] = molecular target: T4, collagen Type IV (purified from basement membrane of Engelbreth-Holm-Swarm mouse sarcoma) (mouse, UniProt P02463 173-1669; P08122 184-1707)
# T4 construct: collagen type IV alpha 1 chain, mouse; collagen type IV alpha 2 chain, mouse; also called collagen IV; source: bought: Sigma-Aldrich (purified from basement membrane of Engelbreth-Holm-Swarm mouse sarcoma)
# [4] = molecular target: T2, fibrinogen (purified from human plasma)
# [5] = molecular target: T5, collagen Type I (purified from rat tail) (rat, UniProt P02454 152-1207; P02466 86-1125)
# T5 construct: collagen type I alpha 1 chain, rat; collagen type I alpha 2 chain, rat; also called collagen I; source: bought: Sigma-Aldrich (purified from rat tail)
# T5 sequence (P02454 152-1207, chain 1 of 2): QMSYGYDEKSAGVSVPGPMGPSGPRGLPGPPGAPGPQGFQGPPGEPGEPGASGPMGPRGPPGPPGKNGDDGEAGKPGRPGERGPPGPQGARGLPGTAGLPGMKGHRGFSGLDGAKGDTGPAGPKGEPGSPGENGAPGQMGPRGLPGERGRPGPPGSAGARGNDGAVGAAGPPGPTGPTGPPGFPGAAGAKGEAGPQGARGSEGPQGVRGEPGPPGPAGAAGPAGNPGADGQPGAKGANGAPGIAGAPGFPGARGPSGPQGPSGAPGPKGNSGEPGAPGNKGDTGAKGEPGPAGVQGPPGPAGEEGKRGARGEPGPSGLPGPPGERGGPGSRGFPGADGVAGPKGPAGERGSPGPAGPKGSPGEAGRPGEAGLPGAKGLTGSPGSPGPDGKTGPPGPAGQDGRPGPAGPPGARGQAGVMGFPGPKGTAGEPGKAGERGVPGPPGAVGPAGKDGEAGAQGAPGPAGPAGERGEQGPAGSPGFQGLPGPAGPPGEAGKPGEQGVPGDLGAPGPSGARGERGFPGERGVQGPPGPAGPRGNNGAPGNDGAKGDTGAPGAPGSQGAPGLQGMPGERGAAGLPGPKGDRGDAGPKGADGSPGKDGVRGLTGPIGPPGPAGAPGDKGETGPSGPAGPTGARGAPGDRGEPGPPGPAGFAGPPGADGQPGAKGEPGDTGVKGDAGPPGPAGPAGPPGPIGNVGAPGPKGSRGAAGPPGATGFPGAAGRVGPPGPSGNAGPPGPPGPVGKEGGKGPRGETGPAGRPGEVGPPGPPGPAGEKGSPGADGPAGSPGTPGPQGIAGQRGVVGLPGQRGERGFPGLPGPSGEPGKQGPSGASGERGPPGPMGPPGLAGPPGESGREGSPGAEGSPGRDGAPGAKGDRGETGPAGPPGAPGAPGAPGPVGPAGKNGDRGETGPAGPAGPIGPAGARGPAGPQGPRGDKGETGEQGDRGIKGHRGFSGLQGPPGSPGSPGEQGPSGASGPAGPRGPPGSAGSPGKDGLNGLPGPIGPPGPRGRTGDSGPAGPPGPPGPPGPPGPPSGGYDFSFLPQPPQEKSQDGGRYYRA
# T5 sequence (P02466 86-1125, chain 2 of 2): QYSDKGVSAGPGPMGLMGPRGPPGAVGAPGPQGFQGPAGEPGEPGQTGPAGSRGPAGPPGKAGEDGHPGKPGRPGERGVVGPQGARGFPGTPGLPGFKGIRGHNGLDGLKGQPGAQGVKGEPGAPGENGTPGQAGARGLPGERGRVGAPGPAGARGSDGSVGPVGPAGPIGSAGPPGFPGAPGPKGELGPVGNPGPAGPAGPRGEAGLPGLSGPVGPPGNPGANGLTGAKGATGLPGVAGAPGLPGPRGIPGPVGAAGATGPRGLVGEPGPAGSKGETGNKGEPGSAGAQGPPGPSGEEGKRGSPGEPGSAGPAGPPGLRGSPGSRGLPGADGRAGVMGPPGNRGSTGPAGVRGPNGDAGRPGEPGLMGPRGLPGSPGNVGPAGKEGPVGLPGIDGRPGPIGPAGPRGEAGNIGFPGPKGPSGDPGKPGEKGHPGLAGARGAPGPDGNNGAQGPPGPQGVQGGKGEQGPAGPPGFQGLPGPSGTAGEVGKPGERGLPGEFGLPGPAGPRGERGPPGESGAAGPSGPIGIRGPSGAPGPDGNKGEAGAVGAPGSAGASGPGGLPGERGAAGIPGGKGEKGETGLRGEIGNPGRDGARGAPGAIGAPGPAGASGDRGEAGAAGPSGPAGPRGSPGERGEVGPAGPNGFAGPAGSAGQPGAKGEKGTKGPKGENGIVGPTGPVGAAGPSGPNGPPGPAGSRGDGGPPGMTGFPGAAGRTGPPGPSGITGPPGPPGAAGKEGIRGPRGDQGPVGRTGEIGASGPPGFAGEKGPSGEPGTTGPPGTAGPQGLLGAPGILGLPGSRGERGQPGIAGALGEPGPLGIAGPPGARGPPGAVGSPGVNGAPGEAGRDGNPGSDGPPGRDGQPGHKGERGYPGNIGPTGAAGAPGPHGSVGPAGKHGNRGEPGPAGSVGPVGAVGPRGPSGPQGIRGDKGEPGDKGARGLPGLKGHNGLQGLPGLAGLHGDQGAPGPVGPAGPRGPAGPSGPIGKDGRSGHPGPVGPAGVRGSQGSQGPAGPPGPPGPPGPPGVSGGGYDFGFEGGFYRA
# T4 sequence (P02463 173-1669, chain 1 of 2): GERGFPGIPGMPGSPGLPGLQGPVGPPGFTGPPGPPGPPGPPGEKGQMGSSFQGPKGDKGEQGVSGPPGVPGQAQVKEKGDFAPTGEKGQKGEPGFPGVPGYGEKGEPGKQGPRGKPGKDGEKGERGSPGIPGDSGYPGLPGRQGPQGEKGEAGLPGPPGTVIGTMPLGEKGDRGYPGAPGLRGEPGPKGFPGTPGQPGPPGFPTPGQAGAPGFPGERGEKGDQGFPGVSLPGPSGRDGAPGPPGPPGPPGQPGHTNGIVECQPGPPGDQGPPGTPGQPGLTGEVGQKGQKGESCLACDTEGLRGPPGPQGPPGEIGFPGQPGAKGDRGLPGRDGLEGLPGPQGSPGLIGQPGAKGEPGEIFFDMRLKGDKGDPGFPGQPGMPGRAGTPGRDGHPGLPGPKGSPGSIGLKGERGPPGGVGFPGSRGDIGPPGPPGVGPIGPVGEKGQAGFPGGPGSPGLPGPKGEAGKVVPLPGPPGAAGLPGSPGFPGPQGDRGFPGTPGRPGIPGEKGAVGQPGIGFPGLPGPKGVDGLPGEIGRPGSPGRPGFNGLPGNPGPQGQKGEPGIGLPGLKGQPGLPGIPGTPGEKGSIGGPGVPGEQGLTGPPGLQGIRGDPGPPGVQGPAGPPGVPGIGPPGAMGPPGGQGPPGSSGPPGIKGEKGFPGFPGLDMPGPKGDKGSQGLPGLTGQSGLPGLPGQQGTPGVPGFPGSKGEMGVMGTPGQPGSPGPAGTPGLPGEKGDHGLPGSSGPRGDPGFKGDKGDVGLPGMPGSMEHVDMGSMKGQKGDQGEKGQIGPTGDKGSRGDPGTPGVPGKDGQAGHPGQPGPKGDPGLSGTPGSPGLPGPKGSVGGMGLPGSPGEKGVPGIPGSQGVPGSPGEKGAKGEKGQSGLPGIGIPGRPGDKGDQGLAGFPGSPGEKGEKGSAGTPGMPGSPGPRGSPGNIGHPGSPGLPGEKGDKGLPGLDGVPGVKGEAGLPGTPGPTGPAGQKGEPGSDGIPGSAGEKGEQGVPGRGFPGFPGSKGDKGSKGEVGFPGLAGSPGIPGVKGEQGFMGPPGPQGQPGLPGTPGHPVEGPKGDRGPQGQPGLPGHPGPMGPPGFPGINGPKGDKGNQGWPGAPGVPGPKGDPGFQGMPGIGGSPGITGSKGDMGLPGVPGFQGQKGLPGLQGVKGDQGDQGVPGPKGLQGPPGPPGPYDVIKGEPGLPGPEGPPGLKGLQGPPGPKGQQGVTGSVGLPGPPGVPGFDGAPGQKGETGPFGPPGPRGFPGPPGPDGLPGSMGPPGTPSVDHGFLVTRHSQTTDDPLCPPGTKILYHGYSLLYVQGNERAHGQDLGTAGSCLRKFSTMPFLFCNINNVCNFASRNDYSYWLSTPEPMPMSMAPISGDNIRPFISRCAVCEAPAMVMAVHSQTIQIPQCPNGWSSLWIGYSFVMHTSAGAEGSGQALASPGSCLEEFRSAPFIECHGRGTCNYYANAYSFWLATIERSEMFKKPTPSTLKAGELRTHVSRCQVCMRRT
# T4 sequence (P08122 184-1707, chain 2 of 2): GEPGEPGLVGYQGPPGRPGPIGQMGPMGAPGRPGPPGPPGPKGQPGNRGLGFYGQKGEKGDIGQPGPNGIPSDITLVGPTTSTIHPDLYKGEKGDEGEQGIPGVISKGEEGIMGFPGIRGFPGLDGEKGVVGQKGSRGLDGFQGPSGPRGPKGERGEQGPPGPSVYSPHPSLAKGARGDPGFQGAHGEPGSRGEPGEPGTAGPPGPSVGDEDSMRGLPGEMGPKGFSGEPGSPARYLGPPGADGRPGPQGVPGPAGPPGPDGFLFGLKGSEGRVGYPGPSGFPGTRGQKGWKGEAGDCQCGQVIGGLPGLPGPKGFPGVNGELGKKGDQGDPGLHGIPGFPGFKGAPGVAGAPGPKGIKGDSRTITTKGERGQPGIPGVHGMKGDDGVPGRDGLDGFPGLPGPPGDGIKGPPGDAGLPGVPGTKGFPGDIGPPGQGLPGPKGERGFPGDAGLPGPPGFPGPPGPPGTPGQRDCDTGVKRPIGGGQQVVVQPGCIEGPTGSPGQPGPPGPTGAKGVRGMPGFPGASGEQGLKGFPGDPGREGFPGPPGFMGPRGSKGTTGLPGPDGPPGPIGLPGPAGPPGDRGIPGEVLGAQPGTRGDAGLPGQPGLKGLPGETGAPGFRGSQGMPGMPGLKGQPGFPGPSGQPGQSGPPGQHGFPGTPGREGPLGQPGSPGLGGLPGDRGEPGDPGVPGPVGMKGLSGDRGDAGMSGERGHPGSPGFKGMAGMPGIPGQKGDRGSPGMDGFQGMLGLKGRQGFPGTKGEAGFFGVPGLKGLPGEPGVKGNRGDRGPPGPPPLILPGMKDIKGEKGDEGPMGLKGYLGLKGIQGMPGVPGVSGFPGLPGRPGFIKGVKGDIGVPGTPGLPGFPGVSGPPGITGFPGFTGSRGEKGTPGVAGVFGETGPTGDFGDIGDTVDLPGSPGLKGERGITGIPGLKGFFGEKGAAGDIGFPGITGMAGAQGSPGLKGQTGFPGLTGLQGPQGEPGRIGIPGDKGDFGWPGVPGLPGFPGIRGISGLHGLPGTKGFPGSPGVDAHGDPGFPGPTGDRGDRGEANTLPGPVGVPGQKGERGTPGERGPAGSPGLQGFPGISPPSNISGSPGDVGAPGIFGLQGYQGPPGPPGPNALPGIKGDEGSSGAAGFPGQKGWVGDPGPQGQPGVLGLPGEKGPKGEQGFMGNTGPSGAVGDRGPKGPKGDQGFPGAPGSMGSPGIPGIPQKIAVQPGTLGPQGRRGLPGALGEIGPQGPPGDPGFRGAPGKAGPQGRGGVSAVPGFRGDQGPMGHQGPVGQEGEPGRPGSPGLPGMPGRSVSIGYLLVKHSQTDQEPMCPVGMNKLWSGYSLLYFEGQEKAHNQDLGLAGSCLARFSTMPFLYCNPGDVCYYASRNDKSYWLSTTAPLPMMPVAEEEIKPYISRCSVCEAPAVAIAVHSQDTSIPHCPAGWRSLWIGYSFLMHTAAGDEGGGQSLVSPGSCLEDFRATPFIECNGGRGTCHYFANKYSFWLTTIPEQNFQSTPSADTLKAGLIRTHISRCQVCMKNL
binder,measurement,setting,value
B1,Kd,[1],115 ± 12 nM
same,Kd,[2],23 ± 3 nM
same,Kd,[3],6 ± 1 nM
B2,Kd,[1],41 ± 3 nM
same,Kd,[2],4 ± 1 nM
same,Kd,[4],4 ± 1 nM
same,Kd,[5],8 ± 2 nM
same,Kd,[3],7 ± 1 nM
